The values that follow come from US20240117005A1 (COUNCIL OF THE QUEENSLAND INSTITUTE OF MEDICAL RESEARCH, published 2024).

Starred links: 1 amine or outer side, 2 acyl side, 3 side chain; linkers in the order of their positions; H or OH if unused. Positions of bridges follow the written chain, without caps; N, C: chain ends. No end group written: not given here. *: point of attachment. TBMB = c1c(C[*:1])cc(C[*:3])cc1C[*:2]; Myristyl = CCCCCCCCCCCCCC*

The target of assay [1] is T1, importin-α1 (IMPα1) (human, UniProt P52292 2-529). Briefly: DUOLINK proximity ligation; IC50 of DL-2-NP against IC50 of naked DL-2 for the PDL1:IMPα1 complex.
Assay [2] concerns the target T1, importin-α1 (IMPα1). Briefly: DUOLINK proximity ligation in permeabilised MDA-MB-231 cells; loss of the PDL1:IMPα1 complex, DL-2-NP 10 to 0.3 nM.
For assay [3], the target named is T1, importin-α1 (IMPα1). Briefly: DUOLINK proximity ligation in permeabilised MDA-MB-231 cells; loss of the PDL1-Ac:IMPα1 complex, DL-2 10 to 0.00975 µM.

B1: DL-2 nanoparticle (DL-2 bicyclic peptide encapsulated in a lipid nanoparticle) (peptide)
peptide: ACLTFIFCRLRKGRCMMDVKK
modifications: N-terminal myristyl; cysteines covalently bound to the TBMB scaffold (bicyclic); peptide packaged in a POPC / cholesterol / DSPE-PEG lipid nanoparticle
notes: Same peptide as DL-2, in a different formulation; also called DL-2-NP
On to B1, for which the “fold more potent than DL-2” value in the assay with importin-α1 (IMPα1) [1] was about 39 fold. In the assay with importin-α1 (IMPα1) [2], half-maximal inhibition (IC50) required 0.001 µM.

B2: DL-2 bicyclic peptide (Myristyl-ACLTFIFCRLRKGRCMMDVKK on TBMB scaffold) (peptide)
peptide: Myristyl-ACLTFIFCRLRKGRCMMDVKK
modifications: linker 2-8-15 via TBMB
notes: also called DL-2-TBMB; DL-2-Batch 1
Regarding B2, the half-maximal inhibitory concentration (IC50) in the assay with importin-α1 (IMPα1) [3] was 0.039 µM.

As usually defined, the IC50 is the point on the concentration scale where inhibition reaches its midpoint. Lower therefore signals greater potency in that assay.
